# How the values were obtained:
# Test in all cases: cell-based or functional assay
# [1] = target: HIV-1 Env of pseudovirus RHPA4259.7 (HIV-1)
# [2] = target: HIV-1 Env of pseudovirus 231965.c01 (clade D) (HIV-1)
# [3] = target: HIV-1 Env of pseudovirus 0815.v3.c3 (clade ACD) (HIV-1)
# [4] = target: HIV-1 Env of pseudovirus 3016.v5.c45 (clade D) (HIV-1)
# [5] = target: HIV-1 Env of pseudovirus 6811.v7.c18 (clade CD) (HIV-1)
# [6] = target: HIV-1 Env of pseudovirus 231966.c02 (clade D) (HIV-1)
# [7] = target: HIV-1 Env of pseudovirus ZM53M.PB12 (HIV-1)
# [8] = target: HIV-1 Env of pseudovirus P1981_C5_3 (clade G) (HIV-1)
# [9] = target: HIV-1 Env of pseudovirus 6540.v4.c1 (clade AC) (HIV-1)
# [10] = target: HIV-1 Env of pseudovirus 6952.v1.c20 (clade CD) (HIV-1)
# [11] = target: HIV-1 Env of pseudovirus 89-F1_2_25 (clade CD) (HIV-1)
# [12] = target: HIV-1 Env of pseudovirus 6480.v4.c25 (clade CD) (HIV-1)
# [13] = target: HIV-1 Env of pseudovirus X2131_C1_B5 (clade G) (HIV-1)
# [14] = target: HIV-1 Env of pseudovirus A07412M1.vrc12 (clade D) (HIV-1)
# [15] = target: HIV-1 Env of pseudovirus Ce1086_B2 (HIV-1)
# [16] = target: HIV-1 Env of pseudovirus X1632_S2_B10 (clade G) (HIV-1)
# [17] = target: HIV-1 Env of pseudovirus 235-47 (clade CRF02_AG) (HIV-1)
# [18] = target: HIV-1 Env of pseudovirus 3301.v1.c24 (clade AC) (HIV-1)
# [19] = target: HIV-1 Env of pseudovirus 6545.v4.c1 (clade AC) (HIV-1)
# [20] = target: HIV-1 Env of pseudovirus 3103.v3.c10 (clade ACD) (HIV-1)
# [21] = target: HIV-1 Env of pseudovirus 3817.v2.c59 (clade CD) (HIV-1)
# [22] = target: HIV-1 Env of pseudovirus 6041.v3.c23 (clade AC) (HIV-1)
# [23] = target: HIV-1 Env of pseudovirus Q23.17 (HIV-1)
# [24] = target: HIV-1 Env of pseudovirus CAP45.2.00.G3 (HIV-1)
substance,measurement,setting,value
PG16 (antibody),"IC50, titer in TZM.bl cells",[1],0.375 µg/mL
same,"IC80, titer in TZM.bl cells",[1],3.92 µg/mL
same,"IC50, titer in TZM.bl cells",[2],1.44 µg/mL
same,"IC80, titer in TZM.bl cells",[2],> 50 µg/mL
same,"IC50, titer in TZM.bl cells",[3],> 50 µg/mL
same,"IC80, titer in TZM.bl cells",[3],> 50 µg/mL
same,"IC50, titer in TZM.bl cells",[4],> 50 µg/mL
same,"IC80, titer in TZM.bl cells",[4],> 50 µg/mL
same,"IC50, titer in TZM.bl cells",[5],> 50 µg/mL
same,"IC80, titer in TZM.bl cells",[5],> 50 µg/mL
same,"IC50, titer in TZM.bl cells",[6],0.007 µg/mL
same,"IC80, titer in TZM.bl cells",[6],0.031 µg/mL
same,"IC50, titer in TZM.bl cells",[7],0.007 µg/mL
same,"IC80, titer in TZM.bl cells",[7],0.051 µg/mL
same,"IC50, titer in TZM.bl cells",[8],0.376 µg/mL
same,"IC80, titer in TZM.bl cells",[8],> 50 µg/mL
same,"IC50, titer in TZM.bl cells",[9],0.035 µg/mL
same,"IC80, titer in TZM.bl cells",[9],0.42 µg/mL
same,"IC50, titer in TZM.bl cells",[10],21.9 µg/mL
same,"IC80, titer in TZM.bl cells",[10],> 50 µg/mL
same,"IC50, titer in TZM.bl cells",[11],47.6 µg/mL
same,"IC80, titer in TZM.bl cells",[11],> 50 µg/mL
same,"IC50, titer in TZM.bl cells",[12],> 50 µg/mL
same,"IC80, titer in TZM.bl cells",[12],> 50 µg/mL
same,"IC50, titer in TZM.bl cells",[13],0.024 µg/mL
same,"IC80, titer in TZM.bl cells",[13],0.139 µg/mL
same,"IC50, titer in TZM.bl cells",[14],0.343 µg/mL
same,"IC80, titer in TZM.bl cells",[14],> 50 µg/mL
same,"IC50, titer in TZM.bl cells",[15],> 50 µg/mL
same,"IC80, titer in TZM.bl cells",[15],> 50 µg/mL
same,"IC50, titer in TZM.bl cells",[16],0.012 µg/mL
same,"IC80, titer in TZM.bl cells",[16],0.076 µg/mL
same,"IC50, titer in TZM.bl cells",[17],0.092 µg/mL
same,"IC80, titer in TZM.bl cells",[17],4.51 µg/mL
same,"IC50, titer in TZM.bl cells",[18],0.02 µg/mL
same,"IC80, titer in TZM.bl cells",[18],0.087 µg/mL
same,"IC50, titer in TZM.bl cells",[19],0.044 µg/mL
same,"IC80, titer in TZM.bl cells",[19],1.56 µg/mL
same,"IC50, titer in TZM.bl cells",[20],25.4 µg/mL
same,"IC80, titer in TZM.bl cells",[20],> 50 µg/mL
same,"IC50, titer in TZM.bl cells",[21],0.008 µg/mL
same,"IC80, titer in TZM.bl cells",[21],0.06 µg/mL
same,"IC50, titer in TZM.bl cells",[22],0.048 µg/mL
same,"IC80, titer in TZM.bl cells",[22],0.256 µg/mL
same,"IC50, titer in TZM.bl cells",[23],0.008 µg/mL
same,"IC80, titer in TZM.bl cells",[23],0.043 µg/mL
same,"IC50, titer in TZM.bl cells",[24],0.001 µg/mL
same,"IC80, titer in TZM.bl cells",[24],0.003 µg/mL

# — US20230002480A1
